B1: human TGFβ3 (ligand, UniProt P10600 301-412, looked up)
chain: ALDTNYCFRNLEENCCVRPLYIDFRQDLGWKWVHEPKGYYANFCSGPCPYLRSADTTHSTVLGLYNTLNPEASASPCCVPQDLEPLTILYYVGRTPKVEQLSNMVVKSCKCS
B2: G4_TGFβRII (wt) (Fc fusion)
chain: IPPHVQKSVNNDMIVTDNNGAVKFPQLCKFCDVRFSTCDNQKSCMSNCSITSICEKPQEVCVAVWRKNDENITLETVCHDPKLPYHDFILEDAASPKCIMKEKKKPGETFFMCSCSSDECNDNIIFSEEYNTSNPD
notes: TGFβRII extracellular domain linked to an IgG4 Fc region; Fc is placed first here only because of the name G4_TGFβRII; also called wild-type G4_TGFβRII protein; not shown: Fc region of IgG4 (and any linker)

Tests used:
G4_TGFβRII (wt) = target: B2; experiment: ELISA, plate coated with 0.5 ug/ml human TGFβ3, 1 h incubation, HRP secondary antibody, OD450
Procedure: (§1) A 96-well EIA microplate was coated with 0.5 ug/ml human TGFβ (TGFβ1, TGFβ2, or TGFβ3) overnight at 4° C. […] The unbound proteins were removed by washing the wells with 1×PBST (1×PBS containing 0.05% Tween 20) three times. A HRP-conjugated secondary antibody (1:5000) was added to the wells at room temperature (RT) for 1 hour. After the incubation, excess secondary antibodies were removed by washing the wells with 1×PBST three times. Finally, 3,3′,5,5′-Tetramethylbenzidine (TMB) was added for color development. The reaction was stopped and HRP activity was measured using a spectrophotometer at 450 nm.

human TGFβ3 [1] = target: B1; experiment: cell-based or functional assay
human TGFβ1 [2] = target: T1, human TGFβ1 (human, UniProt P01137 279-390); experiment: ELISA (off rate), plate coated with 0.5 ug/ml human TGFβ1, 1 h incubation, then 2 h wash on a shaker, OD450
Procedure: A HRP-conjugated secondary antibody (1:5000) was added to the wells at RT for 1 hour. After the incubation, excess secondary antibodies were removed by washing the wells with 1×PBST three times. Finally, 3,3′,5,5′-Tetramethylbenzidine (TMB) was added for color development. The reaction was stopped and HRP activity was measured using a spectrophotometer at 450 nm.

human TGFβ3 [3] = target: B1; experiment: ELISA, plate coated with 0.5 ug/ml human TGFβ3, 1 h incubation, HRP secondary antibody, OD450
Procedure: as §1

human TGFβ1 [4] = target: T1, human TGFβ1; experiment: ELISA (on rate), plate coated with 0.5 ug/ml human TGFβ1, 5 min incubation, OD450
Procedure: For on-rate binding ability, a 96-well EIA microplate was coated with 0.5 μg/ml human TGFβ (TGFβ1) overnight at 4° C. […] The unbound proteins were removed by washing the wells with 1×PBST (1×PBS containing 0.1% Tween 20) three times. A HRP-conjugated secondary antibody (1:5000) was added to the wells at RT for 1 hour. After the incubation, excess secondary antibodies were removed by washing the wells with 1×PBST three times. Finally, 3,3′,5,5′-Tetramethylbenzidine (TMB) was added for color development. The reaction was stopped and HRP activity was measured using a spectrophotometer at 450 nm.

human TGFβ1 [5] = target: T1, human TGFβ1; experiment: ELISA, plate coated with 0.5 ug/ml human TGFβ1, 1 h incubation, HRP secondary antibody, OD450
Procedure: as §1

human TGFβ1 [6] = target: T1, human TGFβ1; experiment: cell-based or functional assay

T1 sequence (P01137 279-390 limits assumed): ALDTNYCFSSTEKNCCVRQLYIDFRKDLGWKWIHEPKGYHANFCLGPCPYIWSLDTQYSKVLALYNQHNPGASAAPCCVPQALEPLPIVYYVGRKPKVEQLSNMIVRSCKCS

Binder	binding result (G4_TGFβRII (wt))	IC50 (read off the curve) (human TGFβ3 [1]) [nM]	EC50 (read off the curve) (human TGFβ1 [2]) [nM]	EC50 (read off the curve) (human TGFβ3 [3]) [nM]	EC50 (human TGFβ1 [4]) [nM]	EC50 (read off the curve) (human TGFβ1 [5]) [nM]	IC50 (read off the curve) (human TGFβ1 [6]) [nM]
B1	binds						
B2		~3	~4	~2	10.8	~6	~1
